This is an account of results in the MegaScale stability set (Tsuboyama et al. 2023).

To fix the notation:
B1: 2K2A (parent)
chain: ELREAFRLYDKEGNGYISTDVMREILAELDETLSSEDLDAMIDEIDADGSGTVDFEEFMGVMT

In this series the parent is B1. As to the kind of experiment: folding stability dG (cDNA display proteolysis); higher = more stable. The conditions noted are these: PBS, room temperature.
On to ELREAFRLYDKEGNGYISTDVMREILAELDETLSSEDLDAMIDEIDADGSGTVDFEEFHGVMT, for which the “folding stability dG” value came out at 1.2 kcal/mol.
For the variant ELREAFRLYDKEGNGYISTDVMREILAELDETLSSEDLDAMIDEIDADGSGTVDFEEFFGVMT, the “folding stability dG” value was 2.03 kcal/mol.
The same measure for ELREAFRLYDKEGNGYISTDVMREILAELDETLSSEDLDAMIDEIDADGSGTVDFEEFCGVMT: 1.7 kcal/mol; for ELREAFRLYDKEGNGYISTDVMREILAELDETLSSEDLDAMIDEIDADGSGTVDFEEFGGVMT: 0.537 kcal/mol; for ELREAFRLYDKEGNGYISTDVMREILAELDETLSSEDLDAMIDEIDADGSGTVDFEEFDGVMT: 0.144 kcal/mol.
To ELREAFRLYDKEGNGYISTDVMREILAELDETLSSEDLDAMIDEIDADGSGTVDFEEFLGVMT belongs 1.91 kcal/mol.
The same measure for ELREAFRLYDKEGNGYISTDVMREILAELDETLSSEDLDAMIDEIDADGSGTVDFEEFIGVMT: 2.03 kcal/mol; for ELREAFRLYDKEGNGYISTDVMREILAELDETLSSEDLDAMIDEIDADGSGTVDFEEFAGVMT: 2.04 kcal/mol.
Regarding ELREAFRLYDKEGNGYISTDVMREILAELDETLSSEDLDAMIDEIDADGSGTVDFEEFEGVMT, the “folding stability dG” value amounted to 1.41 kcal/mol.
For ELREAFRLYDKEGNGYISTDVMREILAELDETLSSEDLDAMIDEIDADGSGTVDFEEFNGVMT, the “folding stability dG” value amounted to 0.889 kcal/mol.
As for ELREAFRLYDKEGNGYISTDVMREILAELDETLSSEDLDAMIDEIDADGSGTVDFEEFKGVMT, the “folding stability dG” value came to 1.81 kcal/mol.
On to ELREAFRLYDKEGNGYISTDVMREILAELDETLSSEDLDAMIDEIDADGSGTVDFEEFPGVMT, for which the “folding stability dG” value is -0.961 kcal/mol.
The same measure for ELREAFRLYDKEGNGYISTDVMREILAELDETLSSEDLDAMIDEIDADGSGTVDFDEFMGVMT: 1.84 kcal/mol; for ELREAFRLYDKEGNGYISTDVMREILAELDETLSSEDLDAMIDEIDADGSGTVDFHEFMGVMT: 1.88 kcal/mol; for ELREAFRLYDKEGNGYISTDVMREILAELDETLSSEDLDAMIDEIDADGSGTVDFGEFMGVMT: 1.56 kcal/mol.
To ELREAFRLYDKEGNGYISTDVMREILAELDETLSSEDLDAMIDEIDADGSGTVDFQEFMGVMT belongs 1.9 kcal/mol.
The same measure for ELREAFRLYDKEGNGYISTDVMREILAELDETLSSEDLDAMIDEIDADGSGTVDFVEFMGVMT: 1.75 kcal/mol; for ELREAFRLYDKEGNGYISTDVMREILAELDETLSSEDLDAMIDEIDADGSGTVDFFEFMGVMT: 2.04 kcal/mol; for ELREAFRLYDKEGNGYISTDVMREILAELDETLSSEDLDAMIDEIDADGSGTVDFTEFMGVMT: 1.69 kcal/mol.
On to ELREAFRLYDKEGNGYISTDVMREILAELDETLSSEDLDAMIDEIDADGSGTVDFYEFMGVMT, for which the “folding stability dG” value is 2.02 kcal/mol.
For ELREAFRLYDKEGNGYISTDVMREILAELDETLSSEDLDAMIDEIDADGSGTVDFIEFMGVMT, the “folding stability dG” value amounted to 1.87 kcal/mol.
To ELREAFRLYDKEGNGYISTDVMREILAELDETLSSEDLDAMIDEIDADGSGTVDFNEFMGVMT belongs 1.86 kcal/mol; to ELREAFRLYDKEGNGYISTDVMREILAELDETLSSEDLDAMIDEIDADGSGTVDFAEFMGVMT, 1.78 kcal/mol.
On to ELREAFRLYDKEGNGYISTDVMREILAELDETLSSEDLDAMIDEIDADGSGTVDFSEFMGVMT, for which the “folding stability dG” value was found to be 1.75 kcal/mol.
The same measure for ELREAFRLYDKEGNGYISTDVMREILAELDETLSSEDLDAMIDEIDADGSGTVDFREFMGVMT: 1.78 kcal/mol; for ELREAFRLYDKEGNGYISTDVMREILAELDETLSSEDLDAMIDEIDADGSGTVDFKEFMGVMT: 1.77 kcal/mol; for ELREAFRLYDKEGNGYISTDVMREILAELDETLSSEDLDAMIDEIDADGSGTVDFMEFMGVMT: 1.64 kcal/mol.
The same measure for ELREAFRLYDKEGNGYISTDVMREILAELDETLSSEDLDAMIDEIDADGSGTVDFCEFMGVMT: 1.92 kcal/mol; for ELREAFRLYDKEGNGYISTDVMREILAELDETLSSEDLDAMIDEIDADGSGTVDFPEFMGVMT: 1.21 kcal/mol.
ELREAFRLYDKEGNGYISTDVMREILAELDETLSSEDLDAMIDEIDADGSGTVDFWEFMGVMT: the “folding stability dG” value came out at 1.99 kcal/mol.
To ELREAFRLYDKEGNGYISTDVMREILAELDETLSSEDLDAMIDEIDADGSGTVDFLEFMGVMT belongs 1.88 kcal/mol.
To ELREAFRLYDKEGNGYISTDVMREILAELDETLSSEDLDAMIDEIDADGSGTVDFEETMGVMT belongs -0.411 kcal/mol; to ELREAFRLYDKEGNGYISTDVMREILAELDETLSSEDLDAMIDEIDADGSGTVDFEEWMGVMT, 1.69 kcal/mol.
To ELREAFRLYDKEGNGYISTDVMREILAELDETLSSEDLDAMIDEIDADGSGTVDFEEEMGVMT belongs -0.986 kcal/mol; to ELREAFRLYDKEGNGYISTDVMREILAELDETLSSEDLDAMIDEIDADGSGTVDFEEMMGVMT, 0.426 kcal/mol.
For ELREAFRLYDKEGNGYISTDVMREILAELDETLSSEDLDAMIDEIDADGSGTVDFEEAMGVMT, the “folding stability dG” value was determined as 0.332 kcal/mol.
As for ELREAFRLYDKEGNGYISTDVMREILAELDETLSSEDLDAMIDEIDADGSGTVDFEEQMGVMT, the “folding stability dG” value is -0.946 kcal/mol.
To ELREAFRLYDKEGNGYISTDVMREILAELDETLSSEDLDAMIDEIDADGSGTVDFEEIMGVMT belongs 0.406 kcal/mol; to ELREAFRLYDKEGNGYISTDVMREILAELDETLSSEDLDAMIDEIDADGSGTVDFEECMGVMT, 0.529 kcal/mol; to ELREAFRLYDKEGNGYISTDVMREILAELDETLSSEDLDAMIDEIDADGSGTVDFEENMGVMT, -0.854 kcal/mol.
As to ELREAFRLYDKEGNGYISTDVMREILAELDETLSSEDLDAMIDEIDADGSGTVDFEEVMGVMT, the “folding stability dG” value was 0.336 kcal/mol.
The same measure for ELREAFRLYDKEGNGYISTDVMREILAELDETLSSEDLDAMIDEIDADGSGTVDFEELMGVMT: 0.779 kcal/mol.
